Assay results from the supplement of paper PMC12042874.
± gives the uncertainty stated by the source.

Test: amyloid nucleation score (Sup35N fusion, yeast selection) (log enrichment); library NNK3; higher = more nucleation; inactive = no reads after selection
In short: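 The nucleation score is the DiMSum log enrichment of output over input reads, centred on the mode score of non-aggregating sequences. Only sequences with 100 or more input reads were scored, using Illumina sequencing of input and output plasmid inserts. Psi-negative yeast expressing Sup35N fused to peptides of 20 random codons were induced 24 hours with 100 μM copper sulfate and grown 7 days at 30°C on medium lacking adenine and uracil.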

Substance	amyloid nucleation score
TYLLFGSTLGLSQWVYLDVE	inactive
LYSLVFWNDSSCRSRLVTWF	inactive
PCVYWSLNCSVVIIFSTRLL	inactive
VSSSSEVHCYSSFMYISKSP	0.824 ± 0.16
VDTYHTFVVVLH	inactive
TIVYSLT	inactive
YKKVLLDSFYSDTWSSQGSR	inactive
KMGPILKCPR	inactive
CRLVAEYGLQVKPMQR	inactive
CCMYMISCRDN	inactive
FISRVMGSSR	inactive
DTMNLRWSVWRRHVWCLTGE	inactive
VEDWATILSYY	inactive
GSYYWGGIGFTSEI	0.846 ± 0.14
HLWVNRDQWLVVLTEFSRFW	inactive
LLWEWYFI	inactive
GRALNWTG	inactive
RPFGLAVTRWAPSFAGSRTS	inactive
SCHSSSGGWEVSGNYRRGKL	inactive
RNNVMYVGYEGI	inactive
LVYVLDCRAKLTNYLISTLY	inactive
FFLAFKEQPRAYLISISTH	inactive
QFMYMFRARRTCGLNNGGQD	-0.689 ± 1.5
YLVSY	inactive

Substance	amyloid nucleation score
RCDKIWQASVMGSDIRDL	inactive
LKCSLLYCRCRPGYQIAGT	inactive
HKASKLVYLQWCRHECWSLV	inactive
YYYQNRYFELRHLPEFSS	inactive
CQTGRYRESALSVLARKLNA	inactive
SHVNRVRSLYVGE	inactive
VVKFFVWLDVFYVWGLAGII	inactive
FELSNVHGSLNRAKV	-0.526 ± 0.8
FWYFYSKEFTRQDLVDLNVM	inactive
IAFLAMHLFVASWFPR	inactive
VQCRSHWHWRRPGPEARSVW	inactive
ASTEKGGPNDGTCWYPYCTA	inactive
FSSSPR	inactive
ILWMVSMLRYIIEG	inactive
KGLFWEGYGMMLRLRWWMMV	inactive
TENCEFFTNPPARPYG	inactive
CIKTCSCLSLPGLRFSPAIS	inactive
FTNNI	inactive
YSKRAHVFYES	-0.06 ± 0.36
IHTQAFMGMFSLHWNHVFDL	inactive
RMYACSWGKSDLSCLMSFGK	inactive
RDLCIPWLCRAFFPAMCVVI	inactive
SHGGYACTSLIMTLIPLLYM	inactive
ERNFPGLFIQLVHLQPEARM	0.631 ± 0.34

Substance	amyloid nucleation score
WSMLPLKNTIAKQ	inactive
IALSVDYLRFIFKNHSA	-0.464 ± 0.66
GEDVGPCMTESCRYAYLRYT	inactive
LGCSVTTVSV	inactive
VEDGAGGP	inactive
FWCIGEIRCTYMWRSQCFCV	inactive
VFVSSKTISLSGSLMISPNL	1.69 ± 0.086
GQFANPVK	inactive
KNGIITLSSIT	inactive
VWLSRRIVCFRLLVQLNSA	inactive
MVSLHYVI	inactive
VRGGHSTTGI	inactive
WILSNRWKFHLVGLVIAFV	inactive
QSPSSKAK	inactive
YRLPHS	inactive
TGRVLGYGLL	inactive
AVSRDCELYKVEYYLVQ	inactive
NYLGVTYCSYSS	inactive
TWKHFFIALLRRSNY	inactive
ESSLWYI	inactive
LLAWFHNCRLRLI	inactive
RTIQFPS	inactive
TFHSM	inactive
INTGMASGSSGTYVSAGIEA	inactive

Substance	amyloid nucleation score
LYFRLPNASAVDIIEIGFPV	0.039 ± 0.55
LRLQIEKTAKNMFEYKAG	inactive
YWNIFGVVSN	inactive
SGTFYANVWFRFISFGWYLR	inactive
FSKFQTYVSHMVVYGIMSGN	inactive
NPIYDSQLPATSCMQAFNAF	inactive
WVDYLYNSLESIRMCWANVY	inactive
SLRYGREIKNMRQNCIDPWC	inactive
RIYQRSFIWCASMESGSGPL	0.747 ± 0.2
LVFGLLLS	inactive
LVCFARVRKMEAEAFMKLVW	0.64 ± 0.26
LAITLRLLFVNIIFTDPDLY	inactive
SAEVAYGSFVYAGSWCRSVR	inactive
RKSDFVIVSCYQRFGNRELN	inactive
THRVTTRCLLRLLRWIRM	inactive
DCLSVEFVLNTRVAYWCTCA	-0.092 ± 0.52
GNIAELVSGREVYNYVN	-0.075 ± 0.9
NYLVYSCDVRYSYMVSELAS	inactive
YDELY	inactive
FLIISCS	inactive
YIFFEWGINPHRGDYVFSFR	inactive
DVLGCPNMEVCWSGFLSQNY	inactive
GCRNVVCVVDGFSVM	inactive
ITMCRDFLLAPWPCLLQPSH	inactive

Substance	amyloid nucleation score
MNVGAIGKSSFMY	inactive
HTTALIGANDSA	0.024 ± 0.46
PNPLRLNNIRRVLARKSKVS	inactive
CIVRIVQST	inactive
RQVTLARWTISIC	inactive
ILRPPKAA	inactive
RGMCV	inactive
FFNIDVHARVSI	inactive
YYTWVCECSYWHSVFM	inactive
CRKNRSFGDGDLKFCANLNC	inactive
GKGCYLVVCDYTTCTKFLNM	inactive
YVFFIVMASSCWHVHSYNYF	-0.437 ± 0.98
YILNC	inactive
KRHYMGTAQGCMGIVLKVFY	inactive
KVGTVLWCFTCSAGHRECNG	2.75 ± 0.055
TGVSIKFTSSKYYSVTSATT	inactive
SSLLANRYVWLDKLRHWHWR	inactive
CYSNSEPISAYDD	inactive
VIGHMIGMDY	inactive
YFINSFCVAVWIICHQGVCA	inactive
NNFKGFFRRFTVGCSRTPPT	inactive
MFLRVSTTINAYFLRVRSLI	inactive
NIALFEILSSGIIVSNSNER	inactive
VLRSNHFD	inactive

Substance	amyloid nucleation score
VTVEALILNN	inactive
DVARPCSI	inactive
NLKRTQLFLHLFRMGCFHT	inactive
YPLNLYYQAFYSLIGLVIPP	inactive
LFVIHAGMNSTSFFKNMMSC	inactive
FMGTRTKLMALVYQEELSRS	inactive
ELLGGLSLLGMSIFVLLSSL	inactive
SKLCELLSLQTAVAYMMSGA	inactive
DRGSMSHILASVSTFNVYIS	1.2 ± 0.1
GWYLYIVTG	inactive
IDLNMQMELHGWHRVCWGCY	0.657 ± 0.22
CDVLYRILRYIYSGKLLFSE	inactive
VQKSMR	inactive
PLSLSGGDDDRLLSLEMLVL	inactive
YITNVQVIGMMVINSNHKGV	3.42 ± 0.058
YLISNVFIVLSVDLCDVLGL	2.44 ± 0.072
HSSLNGRNG	inactive
LTTICS	inactive
SNIVFVPRSLQRREDGRRMD	inactive
FIVYMSTHRA	1.67 ± 0.11
SLRDVVV	inactive
YDLRAALKV	inactive
IRCMSLYLHNGGVYRS	1.72 ± 0.069
SYMLNSCSWRTK	inactive

Substance	amyloid nucleation score
MIYLYNKKYMSCRFDTCIIP	inactive
SVARNSHYATLHKELQHVMY	inactive
IRLYFQYFLLSG	2.35 ± 0.063
TAQTNPGVYYS	inactive
PMCFSSHRFGTCRINWHVPG	inactive
NQSCFMSAGNGSF	inactive
TYGTCVGQK	inactive
FGRVT	inactive
FIRFWASVSTNCRLPFLLNR	inactive
IRHRTIWSYGSFY	inactive
SSYFYHNVILPTHIYNFSVI	2.27 ± 0.08
SIFLGLRSRQLSFISLLEDG	inactive
KNINVLYHICAALKSCAFCT	inactive
YKWARYVFTTDNYFWVPAGY	inactive
HFQIIC	inactive
KLICVRTDWWSCVIISRFSL	inactive
TVTGIMSKYANTSFRN	inactive
HSCFCQCVSARYCDYSSVTR	inactive
